Measured values: the nanobody polyreactivity screen of Harvey et al. (2022)

Test: yeast display, Sf9 membrane polyspecificity reagent, FACS + sequencing; frameworks hold sequencing errors
Procedure, shortened: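 Sorting gates, low and high (top ~1%), were placed on anti-HA fluorescence to track expression and on streptavidin fluorescence to track reagent binding. A clone's polyreactivity label is taken from the gate it came out of. The reagent was 10% biotinylated, detergent-solubilized Sf9 membrane, applied for 1 hour at 4 °C to galactose-induced yeast display cells.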

Sequence	polyreactivity (PSR sort gate)
QVQLVESGGGLVQAGGSLRLSCAASGYIFSGYARGWYRKAPGKERELVAAISSNGGSTYYADSVKGRFTISRDNANNTVYVQMNSLKPEDTAVYYCNRGLAARVGRGDYWGQGTQVTVSS	low polyreactivity
QVQLVESGGGLVQAGGSLRLSCAASGRTFSFYAMVWYRQAPGKERELVAGIDWDDGSTSYADSVKGRFTISRDNAKNTVYLQMNSLKQEDTAVCYCAADIGYDVYNDYDYWGQGTQVTVSS	low polyreactivity
QVQLVESGGGLVQAGGSLRLSCAASGRTFKYYAMGWSRQAPGKERELVATISSGGSTNYADSVKGRFTISRDNAKNTVYLQMNSLKPEDTAVYYCADTIGHNGFDYWGQGTQVTVSS	low polyreactivity
QVQLVESGGGLVQAGGSLRLSCAASGFISRYYYMGWYRQAPGKERELVAAIRWSGDRTYYADSVKGRFTISRDNAKNTVYLLMNSLKPEDTAVYYCNADVVLGRSWRGYWGQGTQVTVSS	high polyreactivity
QVQLVDSGGGLVQAGGRLRLSCAASGFIIDWNTKGWYRQAPGKERELVAAITESSGSTYYADSVKGRFTISRDNAKNTVYLLMNSLKPVDTAVYYCGAELDVSVCFVSRFHFDYWGQGTQVTVSS	low polyreactivity
QVQLVESGGGLVQAGGSLRLSCAASGLIFSSYAMGWYRQAPGQERELVAAITGSGGRTYYADSVKGRFTISRDNAKNTVYLQMNSLKPEDTAVYYWNRRSRRQGGYWGQGTHVTVSS	high polyreactivity
QVQLVESGGGLVQAGGSLRLSCAASGSIFAYYTMGWYRQAPGKERELVARISSRGGRTYYADSVKGRFTISRDNAKNTVYLQMNSLKPEDTAVYYCNAGYSYRKYDYWGQGTQVTVSS	high polyreactivity
QVQLVESGGGLVQAGGSLRLSCAASGRTFSYNAMGWYRQAPGKERELVAAITSSGGGTSYADSVKGRFTISRDNAKNTVYLQMNSLKPEDTAVYYCNRVLPHPDGYGVGARGYWGQGTQVSVSS	high polyreactivity
QVQLVESGGGLVQAGGSLRLSCAASGTIFIVNAMGWYRQAPGKERELVAAITQGDGSTYYADSVKGRFTISRDNAKNTVYLQMNSLKPEDTAVYYCAVGDLVAYTWQEYNYWGQGTQVNVSS	low polyreactivity
QVQLVESGGGLVQAGGSLRLSCAASGRTIYRYAMGWYRQAPGKERELVAAISRRGGSTYYADSVKGRFTISRDNAKNTVYLHMNSLKPEDSAVYYCNAPFGDVYRTDDYWGQGTQVTVSS	high polyreactivity
QVQLVESAGGLVQAGGSLRLSCAASGSIFQGNARGWYRQAPGKERELVAAISQSGGRTYYADSVKGRFTISRDNAKNTVYLQMISLKPEDTAVYYCNTTKVYRLRFDYWGQGTQVTVSS	low polyreactivity
KVQLVESGGGLVQAGGSLRLSCAASGSTFYYYAMGWYSQAPGKERELVAAITSSTGSTYYADSVKGRFTISRDNAKNTVYLQMNSLKPVDTAVYYCAATDPYAYYWGQGTKVTVSS	high polyreactivity
QVQLVESGGGLVQAGGSLRLSCAASGNILPVYAMGWYRQAPGKEREFVAAITSRGGSTYYADSVKGRFTISRDNAKITVYLQMNSLKPDDTAVYYCAAKYLRAYGYWGQGTQVTVSS	high polyreactivity
QVQLVESGGGLVQAGGSLRLSCAASGFTFGPYAMGWYRQAPGNEMELVAGITWSGASTYYADSVKGRFTISRDNAKNTVYLQMNSLNPEDSAVYYCARYYRLVSRYDYWGQGRQVTVSS	low polyreactivity
QVQLVESGGGLVQAGGSLRLSCAASGSIFAVYAMGWYRQAPGKERELVASITNDGSTYADSVKGRFTISRDNAKNTVYLQLNSLKPEDTAVYYCNADYLTYFTTFDYWGQGTQVTVSS	low polyreactivity
QVQLVESGGGLVQARGSLRLSCASSGSIFRFNGMGWYRQPPGKERELVATISSGGRTNYADSVKGRFTISRDNAKNTVYLQMNSLKPEDTAVYYCAARSPLRTSYYYPYYYWGQGTQVTVSS	high polyreactivity
QVQLVESGGGLVQAGGSLRLSCAASGSIFQWNAMGWYRQAPGKERELVAAISSGTSTNYADSVKGRFTISRDNAKNTVYLQMNSLKPEDTAVYYCAAEGRGWAAFEVGYWGQGTLVTVSS	low polyreactivity
QVQLVESGGGLVQAGGSLRLSCAASGRIFKYNAMGWYIQAPGKERELVAVITSGGSTYYADSVKGRFTISRDNEKNTVYLQMNSLKPDDTEVYYCAKKYYKVHKFDYWGQGTQVTVSS	low polyreactivity
QVQLVESGGGLVQAGGSLRLSCAASGSTFRFNTMGWYRHAPGKDRELVAAITSGGSTYYADSVKGLFTISRDNAKNTVYLQMNSLKPEDTAVYYCAATWYIRGQCYYYWGQGTQVTVSS	high polyreactivity
QVQLVESGGGLVQAGGSLRLSCAASGSTFRYYAMGWYRQAPGKERELVAAISWSGGSTYYADSVKGRFTISRDNAKNTVYLQMNSLKPEDTAVYYCNKAWFPYYYYRFDYWGQGTQVTVSS	high polyreactivity
QVQLVESGGGLVQAGGSLRLSCAASGRIFPFYDMGWYRQAPGKEREFVARITLSGGSTYYADSVMGRFTISRDNAKNTVNLQMNSLKPEDTSVYYCSADRTSWSVLDFDYWGQGTQVTVSS	low polyreactivity
QDQLLESGGGLVQAGGSLRLSCAASGSTFGANAMGWYRQAPGKEREFVAAISRSGLRTYYADSVKGRFTNSRDYAKNTVYIQMNSLKPEDTAVYYCSADCYWWTYTRYDYWGQGSQVTVSS	low polyreactivity

Sequence	polyreactivity (PSR sort gate)
QVQLVESGGGLVQAGGSLRLSCAASGRTFATYAMGWYRQAPGKERELVAAISNSGGRTNYADSVKGRFTISRDNAKNTVYLQMNSLKPEDTAVYYCAAAKRYYSEMYWGQGTQVTVSS	high polyreactivity
QVQLVESGGGLVQAGGSLRLSCAASGGTFRVYAMGWYRQAPGKERELVAAISSGGSTNYADSVKGRFTISRDNAKNTVYLQMNSLKPEDTAVYYCNAKYRYRFARSPIYYYWGQGTQVTVSS	low polyreactivity
QVQLVESVGGLVQAGGSLRLSCAASGRTFGRYAMGWYRQAPGKERELVAGISRSGDSTHYADSVKGRFTISRDNAKNTVYLQMNSLKPEDTAVYYCNKETPTIGARKYEYWGQGTQVTVSS	low polyreactivity
QVQLVESGGGLDQAGGSLRLSCAASGIIFSLYAMGSYRQAPGKERELVAAISASDGDTYYADSVKGRFTISRDNAKNTVYLQMNSLKPEDTAVYYCAADATYYLGYEAEYYYWGQGTQVTVSS	low polyreactivity
QVQLVESGGGLVQAGGSLRLSCAASGRTFRRYAMGWYRQAPGKERELVATIRSGDNTNYADSVKGRFTISRDNAKNTVYLQMNSLKPEDTAVYYCNRSPKSGQVTYLYSVNAHYDYWGQGTQVTVSS	low polyreactivity
LVQHVESGGGLVQAGGSLRLNCAASGRTFKPYAMGWYIQSPGKERELVAAISTRGGSTYYADSVKGRFTISRDNAKNSVFLQMNSLKPEDTALFYCAATQPGRDYDYWGQGTQVTVSS	low polyreactivity
QVQLVESGGGLVQAGGSLSLSCAASRFTIGLYAMGWYRQAPGKEREMVAVISSSGGSTYYADSVKGRFTISRDNAKNTVYLQMNSLKPEDTAVYYCAAEWHDYKFDVTYDYWGQGTQVTVSS	low polyreactivity
QVQLVETGGGLVQAGGSLRVSCAASGRTFVGNAMGWYRQPPGKERELVAAISYSGDDTYYADSVKGRFTISRDNAKNTVYLQMNSLKPVDTAVYYCAAEWTAENAGIVLELEYWGQGTQVTVSS	high polyreactivity
QVQLVESGGGLVQAGGSLRLSCAASGSTLLSYTMGWYRQAPGKERELVASITTSGGSTYYADSVKGRFTISRDNAKNTVYLQMNSLKPEDTAVYYWGQGTQVTVSS	low polyreactivity
QVQLVESGGGLVQAGGSLRLSCAASGSTFQVYGMGWYRQAPGKERELVAAISRSGGRTYYADSVKGRFTISRDNAKNTVYLQMNSLKPEDTAVYYCNAPISYYDEYYYWGQGTQVTVSS	high polyreactivity
QVQLVESGGGLVQAGGSLRLTCAASGSTFDINAMGWYRQAPGKERELVASITFSGGSTYYADSVKGRFTISRDNAKNTVYLQMNSLKPEDTAVYYCAADSSGEYPRWLRYDYWGQGTQVTVSS	low polyreactivity
QVQLVESGGGLVQAGGSLRLISAASGSTFRHYALGWNRQAPGKERELVAAISSTGGSTYYADSVKGRFTISRDNAKNTVYLQMNSLKPEDTAVFYCAARRLYWGQGTQVTVSS	high polyreactivity
QVQLVESGGGLVQAGGSLRLSCAASGITFGNYAMYWVRQAPGKERELVAAINYSRGSTYYADSVKGRFTISRDNAKNTVYLQMNSLKPQDTAVYYCAADTYPASYDYWGQGTQVTVSS	high polyreactivity
QVQLVESGGGLVQAGGSLRLSCAASGSIFFIYDMGWYRQAPGKERELVADITSGGGSTFYADSVKGRFTISRDNAKNTVYLQMNSLKPEDTAVYYCATDDHDQPGGQLYITEVNYWGQGTQVTVSS	low polyreactivity
QVQLVETGGGLVQAGGSLRLSCAASGSIFTYYAMGWSRQAPGKERELVAAITSGGSTYYADSVKGRFTISRDNAKNTVYLQMNSLKPEDTAVYYCNAVTFYRYYTGKYDYWGQGTQVTVSS	high polyreactivity
QVQLVESGGGLVQAGGSLRLSCAASGLIFGNYAMGWYRQAPGKERELVAAITSTGITYYADSVKGRFTISRDNAKNTVYLQMNSLKPEDTAVYYCNADYYRHSLDYDYVGYDYWGQGTQVTVSS	low polyreactivity
EEELVESAVRLVQAGVSLRLSCAASAIIYAYNAMGWYRQAPGKESELVAAISSGDDTNYADSVKGRFTISRDNAKNTVYLQLNSLKPEDTAVYYCAAEVWTAFTHGSYWTVVDYDYWGQGTQVTVST	low polyreactivity
QVQLVESGGGLVQAGGSLRLSCASSGSTLEVNAMGWYRQAPGKERELVAAITSGCSTNYADSVKGRFTISRDNAKNTVYLQMNSLKPEDTAVYYCNALAYYGMDYWGQGTQVTVSS	low polyreactivity
QVQLVESGGGLVQAGGSLRLSCAASGFISFPYAMGWYRQAPGKERELDASITRSGGNTYYADSVKGRFTISRDNAKNTVYLQMNRLKPEDTAVYYCNAQIYTYRTGRGYSRLDYWGQGTQVTVSS	high polyreactivity
QVQLVESGGGLVQAGGTLRLSCAASGRTFGYNAMGWYRPAPGKERELVAVIRSGGSTYYADSVKGRFTISRDNAKNTVYLQMNSLKPEDTAVYYCAATGLYNVTSPYSYKYDYWGQGTQVTVSS	low polyreactivity
QVQLVESGGGLVQAGGSLRLSCAASGTFWWYAMGWYRQAPGKERELVASINRGGSTYYADSVKGRFTISRDNAKNTVYLQMNSLKPEDSAVYYCNARWIGRLTPYRRATYYYWGQGTQVTVSS	high polyreactivity
